The source of these data is US20200216495A1 (ADRX, published 2020).

This assay addresses Tau40 P301L protein (human). Briefly: cell-based or functional assay.

Where “and” joins values, the source holds several entries; their conditions need not be identical. Equal entries are not always repeated. Square brackets hold non-standard residues; d marks the D form. Ends that are not written are not given here. dMet(O) = CS(=O)CC[C@@H](N)C(=O)O

Regarding [dL][dK][dI][dR][dI][dMet(O)][dY] [lkirixy (PEPTIDE ID NO: 297)], the “IC50, Tau40 assay (ThT)” value was determined as 1880 nM.
With [dL][dR][dL][dR][dI][dK][dH][dF] [lrlrikhf (PEPTIDE ID NO: 150)], the “IC50, Tau40 assay (ThT)” value is 1780 nM and 2430 nM.
As for [dL][dH][dI][dK][dL][dR][dW][dH] [lhiklrwh (PEPTIDE ID NO: 151)], the figure is 1650 nM and 1830 nM.
Consider [dF][dK][dI][dK][dI][dK][dW] (not fully specified; printed as fkikikw) [fkikikw (PEPTIDE ID NO: 60)], for which the “IC50, Tau40 assay (ThT)” value is 1570 nM and 1650 nM.
[dW][dR][dL][dR][dL][dR][dW] [wrlrlrw (PEPTIDE ID NO: 200)]: the “IC50, Tau40 assay (ThT)” value amounted to 700 nM.
As for [dW][dR][dV][dQ][dV][dR][dW] [wrvqvrw (PEPTIDE ID NO: 102)], the “IC50, Tau40 assay (ThT)” value is 1540 nM and 1570 nM.
[dK][dI][dK][dI][dK][dW] [kikikw (PEPTIDE ID NO: 66)]: the “IC50, Tau40 assay (ThT)” value was 1870 nM.
On to [dW][dK][dV][dW][dV][dR][dY][dW] [wkvwvryw (PEPTIDE ID NO: 92)], for which the “IC50, Tau40 assay (ThT)” value was 700 nM and 810 nM.
For [dT][dK][dI][dR][dI][dH][dY] [tkirihy (PEPTIDE ID NO: 283)], the “IC50, Tau40 assay (ThT)” value is 1630 nM.
For [dL][dK][dI][dR][dI][dH][dY][dR] [lkirihyr (PEPTIDE ID NO: 291)] the value was 1810 nM; for [dL][dW][dR][dL][dK][dV][dR][dW] [lwrlkvrw (PEPTIDE ID NO: 202)], 720 nM; for [dW][dR][dT][dK][dV][dR][dW] [wrtkvrw (PEPTIDE ID NO: 276)], 1560 nM.
As for [dE][dI][dR][dL][dH][dW] [eirlhw (PEPTIDE ID NO: 74)], the “IC50, Tau40 assay (ThT)” value amounted to 1540 nM.
Regarding [dW][dN][dL][dK][dV][dR][dW] [wnlkvrw (PEPTIDE ID NO: 294)], the “IC50, Tau40 assay (ThT)” value is 1820 nM.
For [dF][dH][dI][dR][dL][dE][dW][dH] [fhirlewh (PEPTIDE ID NO: 139)] the value was 1860 nM and 2190 nM; for [dL][dK][dI][dW][dI][dH][dY][dH] [lkiwihyh (PEPTIDE ID NO: 299)], 1910 nM.
In the case of [dW][dF][dK][dI][dK][dL][dE][dL] [wfkiklel (PEPTIDE ID NO: 110)], the “IC50, Tau40 assay (ThT)” value was 1770 nM and 2530 nM.
On to [dW][dK][dV][dN][dV][dR][dL][dW] [wkvnvrlw (PEPTIDE ID NO: 95)], for which the “IC50, Tau40 assay (ThT)” value was 1670 nM and 1710 nM.
With [dK][dV][dR][dW][dW][dL][dR][dW] [kvrwwlrw (PEPTIDE ID NO: 201)], the “IC50, Tau40 assay (ThT)” value was 710 nM.
As to [dW][dH][dL][dR][dI][dR][dW] [whlrirw (PEPTIDE ID NO: 19)], the “IC50, Tau40 assay (ThT)” value was 1540 nM and 1630 nM.
[dW][dK][dV][dQ][dV][dR][dW] [wkvqvrw (PEPTIDE ID NO: 89)]: the “IC50, Tau40 assay (ThT)” value is 1730 nM and 1760 nM.
With [dW][dR][dL][dK][dV][dR][dW] [wrlkvrw (PEPTIDE ID NO: 289)], the “IC50, Tau40 assay (ThT)” value was 1770 nM.
For the molecule [dR][dL][dR][dI][dR][dW] [rlrirw (PEPTIDE ID NO: 27)], the “IC50, Tau40 assay (ThT)” value is 1610 nM.
In the case of [dL][dK][dV][dR][dW][dW][dW][dR] [lkvrwwwr (PEPTIDE ID NO: 199)], the “IC50, Tau40 assay (ThT)” value was 700 nM.
On to [dW][dR][dL][dE][dV][dR][dW][dW] [wrlevrww (PEPTIDE ID NO: 288)], for which the “IC50, Tau40 assay (ThT)” value amounted to 1720 nM.
For [dW][dR][dI][dR][dL][dR][dY][dW] [wrirlryw (PEPTIDE ID NO: 104)] the value was 1910 nM and 2450 nM; for [dL][dR][dL][dH][dL][dR][dH][dW] [lrlhlrhw (PEPTIDE ID NO: 149)], 1640 nM and 2060 nM; for [dL][dK][dI][dR][dI][dA][dY] [lkiriay (PEPTIDE ID NO: 271)], 1480 nM.
Turning to [dF][dK][dI][dR][dI][dH][dH][dY] [fkirihhy (PEPTIDE ID NO: 122)], the “IC50, Tau40 assay (ThT)” value is 1890 nM and 910 nM.
Consider [dL][dK][dI][dR][dI][dH][dR][dH] [lkirihrh (PEPTIDE ID NO: 274)], for which the “IC50, Tau40 assay (ThT)” value was 1510 nM.
With [dW][dR][dL][dK][dV][dR][dE][dW] [wrlkvrew (PEPTIDE ID NO: 284)], the “IC50, Tau40 assay (ThT)” value worked out at 1640 nM.
[dW][dK][dV][dK][dF][dQ][dH][dW] [wkvkfqhw (PEPTIDE ID NO: 94)]: the “IC50, Tau40 assay (ThT)” value came out at 1690 nM.
Take [dF][dK][dL][dH][dI][dR][dH][dW] [fklhirhw (PEPTIDE ID NO: 128)]: the “IC50, Tau40 assay (ThT)” value is 1710 nM and 1760 nM.
For the molecule [dF][dR][dL][dK][dV][dR][dW][dF] [frlkvrwf (PEPTIDE ID NO: 4)], the “IC50, Tau40 assay (ThT)” value is 1870 nM and 1910 nM and 870 nM.
In the case of [dW][dR][dL][dK][dV][dN][dW] [wrlkvnw (PEPTIDE ID NO: 296)], the “IC50, Tau40 assay (ThT)” value came to 1870 nM.
With [dL][dK][dI][dQ][dI][dH][dY] [lkiqihy (PEPTIDE ID NO: 285)], the “IC50, Tau40 assay (ThT)” value was determined as 1640 nM.
[dF][dK][dI][dK][dL][dK][dW] [fkiklkw (PEPTIDE ID NO: 35)]: the “IC50, Tau40 assay (ThT)” value was 1740 nM and 1840 nM.
For the molecule [dL][dK][dI][dH][dI][dH][dY][dH] [lkihihyh (PEPTIDE ID NO: 295)], the “IC50, Tau40 assay (ThT)” value was determined as 1850 nM.
[dW][dR][dL][dH][dV][dR][dW][dW] [wrlhvrww (PEPTIDE ID NO: 292)]: the “IC50, Tau40 assay (ThT)” value was determined as 1820 nM.
As for [dK][dL][dK][dL][dR][dW][dF] [klklrwf (PEPTIDE ID NO: 438)], the figure is 1670 nM; as for [dW][dR][dL][dK][dV][dR][dW][dW] [wrlkvrww (PEPTIDE ID NO: 3)], 1610 nM and 750 nM.
In the case of [dR][dR][dL][dR][dI][dH][dW] [rrlrihw (PEPTIDE ID NO: 290)], the “IC50, Tau40 assay (ThT)” value was determined as 1790 nM.
As for [dR][dR][dL][dK][dV][dR][dW][dR] [rrlkvrwr (PEPTIDE ID NO: 439)], the “IC50, Tau40 assay (ThT)” value amounted to 1680 nM.
As to [dW][dR][dL][dQ][dV][dR][dW] [wrlqvrw (PEPTIDE ID NO: 280)], the “IC50, Tau40 assay (ThT)” value turned out to be 1600 nM.
As to [dR][dL][dK][dV][dR][dW][dW] [rlkvrww (PEPTIDE ID NO: 298)], the “IC50, Tau40 assay (ThT)” value worked out at 1900 nM.
With [dW][dR][dL][dK][dV][dR][dW][dE] [wrlkvrwe (PEPTIDE ID NO: 275)], the “IC50, Tau40 assay (ThT)” value stood at 1520 nM.
[dR][dT][dL][dK][dI][dV][dW][dR] [rtlkivwr (PEPTIDE ID NO: 22)]: the “IC50, Tau40 assay (ThT)” value was found to be 1670 nM.
For [dF][dR][dL][dK][dL][dR][dF][dH] [frlklrfh (PEPTIDE ID NO: 426)] the value was 1770 nM; for [dW][dQ][dL][dK][dV][dR][dW] [wqlkvrw (PEPTIDE ID NO: 273)], 1490 nM; for [dW][dK][dV][dK][dI][dQ][dY][dH] [wkvkiqyh (PEPTIDE ID NO: 100)], 1560 nM and 1610 nM.
For the molecule [dW][dR][dL][dR][dI][dA][dW] [wrlriaw (PEPTIDE ID NO: 272)], the “IC50, Tau40 assay (ThT)” value is 1490 nM.
For [dL][dH][dI][dR][dL][dR][dH][dW] [lhirlrhw (PEPTIDE ID NO: 153)], the “IC50, Tau40 assay (ThT)” value is 1840 nM and 1880 nM.
For the molecule [dW][dR][dL][dK][dV][dQ][dW] [wrlkvqw (PEPTIDE ID NO: 281)], the “IC50, Tau40 assay (ThT)” value turned out to be 1620 nM.
Regarding [dF][dK][dI][dH][dI][dK][dH][dY] [fkihikhy (PEPTIDE ID NO: 127)], the “IC50, Tau40 assay (ThT)” value was 1650 nM and 1790 nM.
As for [dL][dK][dI][dR][dI][dY][dY] [lkiriyy (PEPTIDE ID NO: 277)], the figure is 1570 nM; as for [dW][dR][dL][dK][dV][dR][dR][dW] [wrlkvrrw (PEPTIDE ID NO: 278)], 1580 nM.
